Legend:
recombinant human CD32b = molecular target: T1, recombinant human CD32b (human, UniProt P31994 46-217); assay: ELISA on recombinant human CD32b, hybridoma screening
T1 sequence: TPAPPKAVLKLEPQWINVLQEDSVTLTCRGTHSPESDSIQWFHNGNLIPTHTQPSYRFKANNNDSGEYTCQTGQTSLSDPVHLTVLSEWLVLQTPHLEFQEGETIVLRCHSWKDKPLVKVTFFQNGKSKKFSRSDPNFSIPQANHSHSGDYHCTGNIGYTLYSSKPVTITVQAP
Excerpt: (§1) In order to develop a specific murine monoclonal antibody against Human CD32a using a peptide antigen […] (SEQ ID NO: 40), different criteria were taken into account when designing the peptide: (1) The peptide must not include residue # 167 submitted to a strong polymorphism; (2) The peptide should be specific for CD32a vs CD32b as much as possible to avoid cross-reactivity of anti-CD32a antibody with human CD32b. Thus, a first step was the selection, design and synthesis of a relevant peptide. In order to enhance the immune response, the peptide to carrier conjugation technique (KLH) was used. The peptide thus produced was used in the immunization of 5 mice with an optimized protocol of 45 to 74 days (4-6 injections). The immune response was monitored by bleeding and titration tests (ELISA against the peptide and recombinant human CD32a and CD32b in parallel). Following the results of these tests, the spleen cells from the best mouse were fused with a mouse myeloma cell line. The culture of the hybridomas obtained was carried out in selective medium before the screens for the selection at the polyclonal stage of specific hybridomas against the peptide in ELISA (10× 96-well plates). Further screening for clones positive against recombinant human CD32a and CD32b was performed in parallel. […]

recombinant human CD32a = molecular target: T2, recombinant human CD32a (human, UniProt P12318 34-217); assay: ELISA on recombinant human CD32a, hybridoma screening
T2 sequence: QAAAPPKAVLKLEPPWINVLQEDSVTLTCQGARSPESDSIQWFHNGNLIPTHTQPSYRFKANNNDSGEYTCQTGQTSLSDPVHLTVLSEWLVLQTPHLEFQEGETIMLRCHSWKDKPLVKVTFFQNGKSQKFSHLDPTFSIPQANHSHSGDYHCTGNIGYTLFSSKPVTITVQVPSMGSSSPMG
Excerpt: as §1

B1: murine monoclonal anti-human CD32a antibody from hybridoma 8E2 (antibody, V domains shown)
VH: EVKLQESGPSLVQPGGSMNLSCVASGFTFSTHWMSWVRQSPEKGLEWIAEIRLKTDNYATHYAESVKGLFTISRDDSKSRLYLQMKSLRTEDSGIYYCTTHFAYWGQGTLV
VL: DVVMAQSPLSLPVSLGDQASISCRSSQSLVDSHGNTYLHWYLQKPGQSPKLLIYKVANRFSGVPDRFSGSGSGTDFTLKISRVEAEDLGVYFCSQSTHVPPVTFGAGTKLELK
notes: Tested as hybridoma supernatant in the ELISA screens
Recombinant human CD32b
  binding result: no binding
Recombinant human CD32a
  binding result: binds
